Here are results for five molecules from patent publication EP4810516A1 (Shanghai Shengdi Pharmaceutical Co., Ltd., dated 2026).

As a reminder, the Kd is a measure of binding affinity in units of concentration. As a reminder, the EC50 is the concentration that produces a half-maximal response.

Experiment [1] deals with T1, human GPC3 naturally expressed on tumor cells (human, UniProt P51654 25-580). Nature of the experiment: cell-based or functional assay.
Experiment [2] concerns the target T2, cynomolgus monkey GPC3 (Acrobiosystems, Cat#GP3-C5225) (cynomolgus monkey, UniProt A0A2K5VK50 24-558).
T2 construct: Bought protein
Nature of the experiment: SPR (Biacore 8K), antibody captured on Protein A chip, antigen as analyte. For orientation: Surface plasmon resonance follows binding to a sensor surface in real time, without labels.

The target of experiment [3] is T3, human GPC3 (Sino Biological, Cat#10088-H08H) (human, UniProt P51654 25-559).
T3 construct: Bought protein; also called human GPC3 protein
T3 sequence (P51654 25-559 limits assumed): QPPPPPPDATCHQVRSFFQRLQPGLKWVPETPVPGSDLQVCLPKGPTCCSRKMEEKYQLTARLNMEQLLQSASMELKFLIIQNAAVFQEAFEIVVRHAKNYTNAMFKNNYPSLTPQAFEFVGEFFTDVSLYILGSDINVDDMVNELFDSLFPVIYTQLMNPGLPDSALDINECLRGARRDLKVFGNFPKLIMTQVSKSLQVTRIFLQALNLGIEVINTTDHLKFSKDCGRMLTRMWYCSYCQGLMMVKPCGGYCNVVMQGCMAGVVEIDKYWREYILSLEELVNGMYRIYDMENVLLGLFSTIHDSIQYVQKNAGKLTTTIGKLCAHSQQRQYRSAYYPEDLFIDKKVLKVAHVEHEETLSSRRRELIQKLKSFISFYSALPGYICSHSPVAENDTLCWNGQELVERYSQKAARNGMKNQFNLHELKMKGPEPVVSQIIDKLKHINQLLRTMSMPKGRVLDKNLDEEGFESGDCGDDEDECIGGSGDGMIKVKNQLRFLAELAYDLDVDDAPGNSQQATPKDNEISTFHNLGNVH
Described as above.

For experiment [4], the target named is T4, recombinant monkey (Macaca mulatta) γ9δ2 TCR protein (monkey (Macaca mulatta); called …).
T4 construct: also called Monkey γ9δ2 TCR; Cynomolgus monkey γ9δ2
T4 V domain 1: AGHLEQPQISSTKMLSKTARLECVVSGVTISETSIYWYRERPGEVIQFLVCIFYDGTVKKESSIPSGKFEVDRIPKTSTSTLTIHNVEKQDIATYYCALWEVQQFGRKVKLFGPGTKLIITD
T4 V domain 2: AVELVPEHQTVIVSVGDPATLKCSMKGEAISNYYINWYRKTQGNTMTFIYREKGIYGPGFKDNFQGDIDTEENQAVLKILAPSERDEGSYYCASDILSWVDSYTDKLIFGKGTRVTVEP
Described as above.

Experiment [5] deals with T1, human GPC3 naturally expressed on tumor …. Nature of the experiment: FACS on HepG2 cells (natural human GPC3), anti-human Fc secondary.
The target is the same in experiment [6]. Nature of the experiment: cell-based or functional assay. The source holds these as a separate data set.
Experiment [7] addresses T5, recombinant human γ8δ2 TCR protein (human).
T5 chain 1: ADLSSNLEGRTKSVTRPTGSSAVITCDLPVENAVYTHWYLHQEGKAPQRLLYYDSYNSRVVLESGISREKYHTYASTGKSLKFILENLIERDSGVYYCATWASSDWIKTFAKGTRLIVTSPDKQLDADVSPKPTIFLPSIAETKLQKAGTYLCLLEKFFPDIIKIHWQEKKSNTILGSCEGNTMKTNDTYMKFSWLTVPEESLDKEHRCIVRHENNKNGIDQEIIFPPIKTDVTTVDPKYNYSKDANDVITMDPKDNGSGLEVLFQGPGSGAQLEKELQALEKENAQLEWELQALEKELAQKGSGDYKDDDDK
T5 chain 2: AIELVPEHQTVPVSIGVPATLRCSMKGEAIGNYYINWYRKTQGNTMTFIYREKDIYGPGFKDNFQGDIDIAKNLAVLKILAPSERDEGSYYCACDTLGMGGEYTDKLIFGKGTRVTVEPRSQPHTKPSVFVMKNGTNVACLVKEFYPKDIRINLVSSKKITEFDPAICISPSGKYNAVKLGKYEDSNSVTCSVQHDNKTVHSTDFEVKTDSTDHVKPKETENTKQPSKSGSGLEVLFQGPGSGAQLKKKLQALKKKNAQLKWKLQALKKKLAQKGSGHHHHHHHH
Put plainly: ELISA, plate coated with 1 µg/mL recombinant TCR protein, antibody at 30 nM. Background: In an ELISA, binding on a coated surface is turned into a signal by an enzyme label.

Experiment [8] deals with T5, recombinant human γ8δ2 TCR protein. Nature of the experiment: ELISA, plate coated with 1 µg/mL recombinant TCR protein.

T1 sequence (P51654 25-580, form in doubt): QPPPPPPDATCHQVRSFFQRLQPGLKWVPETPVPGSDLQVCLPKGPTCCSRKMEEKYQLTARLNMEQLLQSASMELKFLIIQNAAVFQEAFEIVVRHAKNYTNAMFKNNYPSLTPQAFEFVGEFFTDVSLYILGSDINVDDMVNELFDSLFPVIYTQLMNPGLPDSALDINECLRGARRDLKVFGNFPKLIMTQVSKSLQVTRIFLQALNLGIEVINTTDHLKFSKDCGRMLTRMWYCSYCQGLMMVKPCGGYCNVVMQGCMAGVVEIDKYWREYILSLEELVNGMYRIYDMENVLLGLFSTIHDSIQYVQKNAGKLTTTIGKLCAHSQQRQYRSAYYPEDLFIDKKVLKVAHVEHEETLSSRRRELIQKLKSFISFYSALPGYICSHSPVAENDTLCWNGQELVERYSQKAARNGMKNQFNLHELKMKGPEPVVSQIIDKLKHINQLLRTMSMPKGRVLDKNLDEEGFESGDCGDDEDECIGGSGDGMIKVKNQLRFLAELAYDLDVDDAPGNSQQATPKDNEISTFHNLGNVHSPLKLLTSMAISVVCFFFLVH

B1: SDP01696 (bispecific antibody, human IgG1, kappa)
heavy 1: not shown
light 1: DIQMTQSPSSVSASVGDRVTITCKASQNVGTNVAWYQQKPGKAPKALIYSASYRYSGVPSRFSGSGSGTDFTLTISSLQPEDFATYYCQQYNSFPLTFGQGTKLEIKGGGGSGIPPKIECLPIDISIDEGKVLTVASAFTGEPTPEVTWSTGGRKIHSQEQGRFHIENTDDSTTLTIKDVQKQDGGLYTLTLRNEFGSDSATVNIHIRSI
heavy 2: QVQLVQSGAEVKKPGASVKVSCKASGYTFTDYEMHWVRQAPGQGLEWMGALDPKTGDTAYSQKFKGRVTLTADKSTSTAYMELSSLTSEDTAVYYCTRFYSYTYWGQGTLVTVSSASTKGPSVFPLAPSSKSTSGGTAALGCLVKDYFPEPVTVSWNSGALTSGVHTFPAVLQSSGLYSLSSVVTVPSSSLGTQTYICNVNHKPSNTKVDKKVEPKSCDKTHTCPPCPAPEFEGGPSVFLFPPKPKDTLMISRTPEVTCVVVDVSHEDPEVKFNWYVDGVEVHNAKTKPREEQYNSTYRVVSVLTVLHQDWLNGKEYKCKVSNKALPAPIEKTISKAKGQPREPQVCTLPPSREEMTKNQVSLSCAVKGFYPSDIAVEWESNGQPENNYKTTPPVLDSDGSFFLVSKLTVDKSRWQQGNVFSCSVMHEALHNHYTQKSLSLSPGK
light 2: DVVMTQSPLSLPVTPGEPASISCRSSQSLVHSNRNTYLHWYLQKPGQSPQLLIYKVSNRFSGVPDRFSGSGSGTDFTLKISRVEAEDVGVYYCSQNTHVPPTFGQGTKLEIKRTVAAPSVFIFPPSDEQLKSGTASVVCLLNNFYPREAKVQWKVDNALQSGNSQESVTEQDSKDSTYSLSSTLTLSKADYEKHKVYACEVTHQGLSSPVTKSFNRGEC
notes: also called anti-GPC3/γδTCR bispecific antibody (1+1, with SDP01315H2L2)
On to B1, for which, in experiment [1], the “γδT killing of HepG2, EC50 (LDH assay)” value came to 0.06 nM; the “γδT killing of HepG2, Emax (LDH assay)” value was determined as 70.1%; the “γδT killing of Huh-7, EC50 (LDH assay)” value amounted to 0.21 nM; the “γδT killing of Huh-7, Emax (LDH assay)” value came to 50.9%. Also, in experiment [1], the “γδT killing of MKN-45, EC50 (LDH assay)” value worked out at 0.024 nM and the “γδT killing of MKN-45, Emax (LDH assay)” value was 11%. The molecule further came in with a Kd in experiment [2] of 1.47 nM. The Kd in experiment [3] is 1.74 nM. Also, the dissociation constant (Kd) in experiment [4] amounted to 42.4 nM. In experiment [5], this molecule yielded an EC50 of 5.17 nM.

B2: SDP01716 (bispecific antibody, human IgG1, kappa)
heavy 1: not shown
heavy 2: QVQLVQSGAEVKKPGASVKVSCKASGYTFTDYEMHWVRQAPGQGLEWMGALDPKTGDTAYSQKFKGRVTLTADKSTSTAYMELSSLTSEDTAVYYCTRFYSYTYWGQGTLVTVSSASTKGPSVFPLAPSSKSTSGGTAALGCLVKDYFPEPVTVSWNSGALTSGVHTFPAVLQSSGLYSLSSVVTVPSSSLGTQTYICNVNHKPSNTKVDKKVEPKSCDKTHTCPPCPAPEFEGGPSVFLFPPKPKDTLMISRTPEVTCVVVDVSHEDPEVKFNWYVDGVEVHNAKTKPREEQYNSTYRVVSVLTVLHQDWLNGKEYKCKVSNKALPAPIEKTISKAKGQPREPQVCTLPPSREEMTKNQVSLSCAVKGFYPSDIAVEWESNGQPENNYKTTPPVLDSDGSFFLVSKLTVD
light: B1 light 2
notes: Knob-into-hole IgG1 Fc with L234F/L235E; also called anti-GPC3/γδTCR bispecific antibody (1+1, with SDP01346H4)
On to B2, for which, in experiment [6], the “Killing activity against HepG2, EC50, γδ T cells of donor #SC12004 (LDH assay)” value is 0.038 nM; the “Killing activity against HepG2, EC50, γδ T cells of donor #SC12392 (LDH assay)” value was 0.033 nM; the “Killing activity against HepG2, EC50, γδ T cells of donor #XC11053 (LDH assay)” value was 0.017 nM; the “Killing activity against HepG2, EC50, γδ T cells of donor #XC11061 (LDH assay)” value was 0.054 nM. Further, in experiment [1], the “γδT killing of HepG2, EC50 (LDH assay)” value is 0.01 nM; the “γδT killing of HepG2, Emax (LDH assay)” value came to 70.3%; the “γδT killing of Huh-7, EC50 (LDH assay)” value came to 0.06 nM; the “γδT killing of Huh-7, Emax (LDH assay)” value is 93.8%. For the same molecule, in experiment [1], the “γδT killing of MKN-45, EC50 (LDH assay)” value turned out to be 0.004 nM and the “γδT killing of MKN-45, Emax (LDH assay)” value was 10.3%. This molecule had a Kd in experiment [2] of 1.47 nM. The molecule further returned a Kd in experiment [3] of 1.65 nM. Moreover, the Kd in experiment [4] amounted to 68.8 nM. In addition, the EC50 in experiment [5] was 4.85 nM.

B3: SDP01704 (bispecific antibody, human IgG1, kappa)
heavy 1: not shown
light 1: B1 light 1
heavy 2: QVQLVQSGAEVKKPGASVKVSCKASGYTFTDYEMHWVRQAPGQGLEWMGALDPKTGDTAYSQKFKGRVTLTADKSTSTAYMELSSLTSEDTAVYYCTRFYSYTYWGQGTLVTVSSASTKGPSVFPLAPSSKSTSGGTAALGCLVKDYFPEPVTVSWNSGALTSGVHTFPAVLQSSGLYSLSSVVTVPSSSLGTQTYICNVNHKPSNTKVDKKVEPKSCDGGGGSGGGGSQVQLVQSGAEVKKPGASVKVSCKASGYTFTDYEMHWVRQAPGQGLEWMGALDPKTGDTAYSQKFKGRVTLTADKSTSTAYMELSSLTSEDTAVYYCTRFYSYTYWGQGTLVTVSSASTKGPSVFPLAPSSKSTSGGTAALGCLVKDYFPEPVTVSWNSGALTSGVHTFPAVLQSSGLYSLSSVVTVPSSSLGTQTYICNVNHKPSNTKVDKKVEPKSCDKTHTCPPCPAPEFEGGPSVFLFPPKPKDTLMISRTPEVTCVVVDVSHEDPEVKFNWYVDGVEVHNAKTKPREEQYNSTYRVVSVLTVLHQDWLNGKEYKCKVSNKALPAPIEKTISKAKGQPREPQVCTLPPSREEMTKNQVSLSCAVKGFYPSDIAVEWESNGQPENNYKTTPPVLDSDGSFFLVSKLTVDKSRWQQGNVFSCSVMHEALHNHYTQKSLSLSPGK
light 2: B1 light 2
notes: Bivalent for GPC3; also called anti-GPC3/γδTCR bispecific antibody (2+1, with SDP01315H2L2)
As for B3, in experiment [1], the “γδT killing of HepG2, EC50 (LDH assay)” value is 0.03 nM; the “γδT killing of HepG2, Emax (LDH assay)” value stood at 72%; the “γδT killing of Huh-7, EC50 (LDH assay)” value amounted to 0.11 nM; the “γδT killing of Huh-7, Emax (LDH assay)” value is 61.7%. Moreover, in experiment [1], the “γδT killing of MKN-45, EC50 (LDH assay)” value is 0.016 nM and the “γδT killing of MKN-45, Emax (LDH assay)” value is 6.6%. The same molecule showed a Kd in experiment [2] of 1.63 nM. For the same molecule, binding in experiment [3] was put at a Kd of 1.84 nM. The Kd in experiment [4] was 40.6 nM. The same molecule yielded an EC50 in experiment [5] of 2.47 nM.

B4: SDP01315 (antibody, V domains shown)
VH: EVKLVESGGGLVKPGGSLKLSCAASGFTFSSYAMSWVRQTPEKRLEWVASISSGGSTYYPDSVKGRFTISRDNARNILYLQMSSLRSEDTAMYYCARDGYPPFDYWGQGTTLTVSS
VL: DIVMTQSQKFMSTSVGDRVSVTCKASQNVGTNVAWYQQKPGQSPKALIYSASYRYSGVPDRFTGSGSGTDFTLTISNVQSEDLAEYFCQQYNSFPLTFGSGTKLEIK
notes: Tested as a chimeric antibody (Protein A purified, detected with anti-human Fc); also called clone No. bph-003; murine-derived anti-γδTCR antibody
As to B4, the “absorbance at 450 nm” value in experiment [7] turned out to be 0.192 absorbance at 450 nm. The binding result in experiment [8] is on record as “no binding (tested: 30 nM)”.

B5: SDP01346 (VHH, not shown: small tags and cut ends)
VHH: QVQLVESGGGLVQAGGSLRLSCTVSGSTFSDFAMGWLRQAPGKEREFVAAISWTGGRTYYADSVKGRFAISRDNGENTVYLQMNSLKSEDTAIYYCAASRDCSGPGCRVHEYDYWGQGTQVTVSS
notes: also called clone No. ac-025; anti-γδTCR single-domain antibody
With B5, the “absorbance at 450 nm” value in experiment [7] is 0.108 absorbance at 450 nm.
